Test results: patent US7053194 (FOX CHASE CANCER CENTER, dated 2006)
Each block holds one binder with its values, some of them ahead of it.

Target: T1, GST p53 (amino acids 1-393), GST fusion protein of full-length p53 (human, UniProt P04637 1-393)
T1 construct: not shown: glutathione S-transferase (GST) fusion partner
Experiment: in vitro interaction of truncated mSin3a with GST p53
Description: GST-fusion proteins were prepared from E. coli cells as described (Murphy et al., Genes & Devel. 10:2971–2980, 1996). One microgram of GST or fusion protein was bound to glutathione sepharose beads and incubated with 10 uL of ^35S methionine labeled, in vitro translated proteins generated in a coupled transcription/translation system (TNT, Promega). Binding occurred in 300 uL of binding buffer (20 mM Hepes pH 7.9/150 mM KC1/1 mM EDTA/4 mM MgC12/1 mM DTT/0.02% NP-40/10% glycerol) supplemented with protease inhibitors. Proteins were bound for 30 minutes at 4 degrees, and bound complexes were washed three times in wash buffer with constant vortexing (20 mM Hepes pH 7.9/150 mM KC1/1 mM EDTA/4 mM MgCl2/1 mM DTT/0.1% NP-40/10% glycerol). Bound proteins were eluted in 1× Laemmli sample buffer and separated on 7.5% or 10% SDS-PAGE. […] Bound complexes were washed twice in NP-40 buffer, once in RIPA buffer, and resolved on SDS-PAGE.

T1 sequence (P04637 whole entry, the tested form may be a part): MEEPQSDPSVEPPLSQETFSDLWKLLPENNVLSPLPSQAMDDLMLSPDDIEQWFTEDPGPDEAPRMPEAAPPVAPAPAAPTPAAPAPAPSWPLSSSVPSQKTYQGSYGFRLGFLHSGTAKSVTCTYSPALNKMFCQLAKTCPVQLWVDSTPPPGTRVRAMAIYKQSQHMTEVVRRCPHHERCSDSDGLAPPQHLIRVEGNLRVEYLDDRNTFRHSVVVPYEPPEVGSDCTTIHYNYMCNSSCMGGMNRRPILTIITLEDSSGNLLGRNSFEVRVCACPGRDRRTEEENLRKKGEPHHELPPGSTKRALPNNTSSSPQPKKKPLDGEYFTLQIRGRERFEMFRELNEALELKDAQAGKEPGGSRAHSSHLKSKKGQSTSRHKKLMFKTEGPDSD

binding result: no binding
B1: truncated mSin3a, amino acids 112-192 (paired amphipathic helix 1) (other, UniProt Q60520 112-192, looked up)
chain: VQGQQQFQRLKVEDALSYLDQVKLQFGSQPQVYNDFLDIMKEFKSQSIDTPGVISRVSQLFKGHPDLIMGFNTFLPPGYKI
notes: range 112-192; Printed PAM is read as PAH1; also called PAM (so in the source); PAH1

binding result: binds
B2: truncated mSin3a, amino acids 297-529 (PAH2-3) (other, UniProt Q60520 297-529, looked up)
chain: QNNQPVEFNHAINYVNKIKNRFQGQPDIYKAFLEILHTYQKEQRNAKEAGGNYTPALTEQEVYAQVARLFKNQEDLLSEFGQFLPDANSSVLLSKTTAEKVDSVRNDHGGTVKKPQLNNKPQRPSQNGCQIRRHSGTGATPPVKKKPKLMSLKESSMADASKHGVGTESLFFDKVRKALRSAEAYENFLRCLVIFNQEVISRAELVQLVSPFLGKFPELFNWFKNFLGYKESV
notes: range 297-529

binding result: no binding
B3: truncated mSin3a, amino acids 297-386 (PAH 2) (other, UniProt Q60520 297-386, looked up)
chain: QNNQPVEFNHAINYVNKIKNRFQGQPDIYKAFLEILHTYQKEQRNAKEAGGNYTPALTEQEVYAQVARLFKNQEDLLSEFGQFLPDANSS
notes: range 297-386
